Experimental findings from patent US20030198971A1 are described below.

This test concerns the target c-fos leucine zipper helix fused via (Gly4Ser)3 linker to BLIP-D49A, fused via a similar linker to β-lactamase (tri-partite cis-inhibited β-lactamase fusion) (UniProt P01100). Kind of test: cell-based or functional assay.

Take “BIP (β-lactamase-S70A) without amino-terminal c-jun helix (from UniProt P62593 24-286)”: the % plating efficiency on 10 µg/ml ampicillin, 100 µM IPTG stood at 100%; the % plating efficiency on 25 µg/ml ampicillin, 100 µM IPTG was 0.7%; the % plating efficiency on 50 µg/ml ampicillin, 100 µM IPTG was under 0.01%; the % plating efficiency on 100 µg/ml ampicillin, 100 µM IPTG was under 0.01%.
Consider “BLIP-F142A without amino-terminal c-jun helix (from UniProt P35804 37-201)”, for which the % plating efficiency on 10 µg/ml ampicillin, 100 µM IPTG is 100%; the % plating efficiency on 25 µg/ml ampicillin, 100 µM IPTG was 4%; the % plating efficiency on 50 µg/ml ampicillin, 100 µM IPTG was under 0.01%; the % plating efficiency on 100 µg/ml ampicillin, 100 µM IPTG was under 0.01%.
Take “c-jun leucine zipper helix fused via (Gly4Ser)3 linker to BIP (β-lactamase-S70A) (from UniProt P05412 276-315; P62593 24-286)”: the % plating efficiency on 10 µg/ml ampicillin, 100 µM IPTG is 100%; the % plating efficiency on 10 µg/ml ampicillin, 100 µM IPTG, c-jun-trx co-expressed as inhibitor is 100%; the % plating efficiency on 25 µg/ml ampicillin, 100 µM IPTG is 100%; the % plating efficiency on 25 µg/ml ampicillin, 100 µM IPTG, c-jun-trx co-expressed as inhibitor turned out to be 100%. For the same substance, the % plating efficiency on 50 µg/ml ampicillin, 100 µM IPTG worked out at 100%; the % plating efficiency on 50 µg/ml ampicillin, 100 µM IPTG, c-jun-trx co-expressed as inhibitor was determined as 9%; the % plating efficiency on 100 µg/ml ampicillin, 100 µM IPTG turned out to be 100%; the % plating efficiency on 100 µg/ml ampicillin, 100 µM IPTG, c-jun-trx co-expressed as inhibitor was 0.08%. In addition, the fold reduction of plating efficiency on 100 µg/ml ampicillin by co-expressed c-jun-trx was over 1000 fold.
As to “c-jun leucine zipper helix fused via (Gly4Ser)3 linker to BLIP-F142A (from UniProt P05412 276-315; P35804 37-201)”, the % plating efficiency on 10 µg/ml ampicillin, 100 µM IPTG was 100%; the % plating efficiency on 10 µg/ml ampicillin, 100 µM IPTG, c-jun-trx co-expressed as inhibitor came to 100%; the % plating efficiency on 25 µg/ml ampicillin, 100 µM IPTG is 100%; the % plating efficiency on 25 µg/ml ampicillin, 100 µM IPTG, c-jun-trx co-expressed as inhibitor came out at 100%. Moreover, the % plating efficiency on 50 µg/ml ampicillin, 100 µM IPTG was 100%; the % plating efficiency on 50 µg/ml ampicillin, 100 µM IPTG, c-jun-trx co-expressed as inhibitor came out at 75%; the % plating efficiency on 100 µg/ml ampicillin, 100 µM IPTG came to 100%; the % plating efficiency on 100 µg/ml ampicillin, 100 µM IPTG, c-jun-trx co-expressed as inhibitor came out at 0.5%.
